In patent publication US20070178531A1 (BIOCHECK, published 2007):

T1: Human Id2: Histidine (human, UniProt Q02363 1-134, limits assumed)
T1 construct: Fusion protein made in E. coli from vector pGW07; also called h-Id2: His; not shown: His tag
T1 sequence (looked up): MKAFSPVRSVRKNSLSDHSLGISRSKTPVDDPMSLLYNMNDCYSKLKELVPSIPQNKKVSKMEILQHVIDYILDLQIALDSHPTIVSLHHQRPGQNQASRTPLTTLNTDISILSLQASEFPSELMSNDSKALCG

T2: Mouse Id3: Histidine (mouse, UniProt P41133 1-119)
T2 construct: Fusion protein made in E. coli from vector pGW07; also called m-Id3: His; Mouse Id3 (coated wells); not shown: His tag
T2 sequence: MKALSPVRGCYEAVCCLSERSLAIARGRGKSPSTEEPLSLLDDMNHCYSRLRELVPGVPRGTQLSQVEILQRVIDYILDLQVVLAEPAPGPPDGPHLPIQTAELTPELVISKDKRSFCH

T3: Mouse Id2: Histidine (mouse, UniProt P41136 1-134, limits assumed)
T3 construct: Fusion protein made in E. coli from vector pGW07; also called m-Id2: His; not shown: His tag
T3 sequence (looked up): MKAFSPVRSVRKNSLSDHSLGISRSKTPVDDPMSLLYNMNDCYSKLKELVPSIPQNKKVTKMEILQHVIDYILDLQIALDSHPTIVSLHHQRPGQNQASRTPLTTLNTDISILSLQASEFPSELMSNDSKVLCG

T4: Human Id1: Histidine (human, UniProt P41134 1-155, limits assumed)
T4 construct: Fusion protein made in E. coli from vector pGW07; also called h-Id1: his; not shown: His tag
T4 sequence (looked up): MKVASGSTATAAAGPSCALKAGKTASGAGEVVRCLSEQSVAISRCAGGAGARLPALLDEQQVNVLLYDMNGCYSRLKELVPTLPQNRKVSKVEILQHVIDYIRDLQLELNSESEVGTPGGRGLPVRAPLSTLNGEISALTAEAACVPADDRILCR

T5: Mouse Id1: Histidine (mouse, UniProt P20067-2 1-148, limits assumed)
T5 construct: Fusion protein made in E. coli from vector pGW07; also called m-Id1-His; not shown: His tag
T5 sequence (looked up): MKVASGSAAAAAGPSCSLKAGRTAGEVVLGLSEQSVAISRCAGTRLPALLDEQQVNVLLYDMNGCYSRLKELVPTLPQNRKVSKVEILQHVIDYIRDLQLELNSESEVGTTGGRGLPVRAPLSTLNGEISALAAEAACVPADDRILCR

T6: Human Id3: Histidine (human, UniProt Q02535 1-119 at identity 1.00))
T6 construct: Fusion protein made in E. coli from vector pGW07; also called h-Id3: His; Human Id3 (coated wells); not shown: His tag
T6 chain: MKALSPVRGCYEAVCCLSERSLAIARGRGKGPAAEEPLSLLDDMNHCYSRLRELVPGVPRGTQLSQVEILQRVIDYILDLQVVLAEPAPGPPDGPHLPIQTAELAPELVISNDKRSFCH

B1: rabbit monoclonal anti-mouse/human Id3, clone #BCH-4/#16-1 (antibody, V domains shown)
VH: QSVEESGGRLVTPGTPLTLTCTASGFSLSSYYIHWVRQAPGKALEWIGYISDGGTTYYASWAKGRFTISKTSSTTVDLKMTSLTTEDTATYFCARQGFNIWGPGTLVTVSL
VL: AVLTQTPSPVSAAVGGTVTISCQSSQSVYNNNWLSWFQQKSGQPPKLLIYETSKLESGVPSRFKGSGSGTQFTLTIIDVQCDDAATYYCLGGYWTTSDNNIFGGGTEVVVK
notes: Rabbit IgG from a rabbit hybridoma; also called m/h Id3 MoAb 16-1
B2: rabbit monoclonal anti-mouse/human Id3, clone #BCH-4/#6-1 (antibody, V domains shown)
VH: QSVEESGGRLVTPGTPLTLTCTASGFSLSNVYIHWVRQAPGKGLEWIGYISDGDTARYATWAKGRFTISKTSSTTVNLKMTSLTTEDTATYFCARQGFNIWGPGTLVTVSL
VL: AVLTQTPSPVSAAVGGTVSISCQSSQSVWNNNWLSWFQQKPGQPPKLLIYETSKLESGVPSRFKGSGSGTQFTLTISDVQCDDAATYYCLGGYWTTSDNNVFGGGTEVVVK
notes: Rabbit IgG from a rabbit hybridoma; also called m/h Id3 MoAb 6-1
B3: rabbit monoclonal anti-mouse/human Id3, clone #BCH-4/#17-3 (antibody, V domains shown)
VH: QSVEESGGRLVTPGTPLTLTCTASGFSLSNVYIHWVRQAPGKGLEWIGYISDGDTARYATWAKGRFTISKTSSTTVNLKMTSLTTEDTATYFCARQGFNIWGPGTLVTVSL
VL: AVLTQTPSPVSAAVGGTVSISCQSSQSVWNNNWLSWFQQKPGQPPKLLIYETSKLESGVPSRFKGSGSGTQFTLTISDVQCDDAATYYCLGGYWTTSDNNVFGGGTEVVVK
notes: Rabbit IgG from a rabbit hybridoma; also called m/h Id3 MoAb 17-3; BCH-3/#17-3
B4: rabbit monoclonal anti-mouse/human Id3, clone #BCH-4/#42-1 (antibody, V domains shown)
VH: QSVEESGGRLVTPGTPLTLTCTASGFSLSSYYIHWVRQAPGKALEWIGYISDGGTTYYASWAKGRFTISKTSSTTVDLKMTSLTTEDTATYFCARQGFNIWGPGTLVTVSL
VL: AVLTQTPSPVSAAVGGTVTISCQSSQSVYNNNWLSWFQQKSGQPPKLLIYETSKLESGVPSRFKGSGSGTQFTLTIIDVQCDDAATYYCLGGYWSTSDNNIFGGGTEVVVK
notes: Rabbit IgG from a rabbit hybridoma; also called m/h Id3 MoAb 42-1
B5: rabbit monoclonal anti-human Id3, clone #BCH-4/#3-3 (antibody, V domains shown)
VH: QSVEESGGRLVTPGTPLTLTCTVSGIDLSSYAMSWVRQAPGKGLEWIGVIFPSNNVYYASWAKGRFTISKTSTTVDLKITSPTTEDTATYFCASMGAFDSWGPGTLVTVSS
VL: QVLTQTPSPVSAAVGGTVTINCQASQSIYNDNDLAWFQQKPGQPPKLLIYDASTLTSGVPSRFKGSGSGTQFTLTISDLDCDDAATYYCAARYSGNIYGFGGGTEVVVK
notes: Rabbit IgG from a rabbit hybridoma; also called h Id3 MoAb 3-3

Experiments:
Human Id2: Histidine [1] = molecular target: T1, Human Id2: Histidine; experiment: ELISA on coated wells, summary
Mouse Id3: Histidine [2] = molecular target: T2, Mouse Id3: Histidine; experiment: ELISA on coated wells, summary
Human Id2: Histidine [3] = molecular target: T1, Human Id2: Histidine; experiment: ELISA, Ab 0.000 µg/ml (blank)
Experimental: (§1) The rabbit monoclonal anti-human Id3 (clone #3-3) and the rabbit monoclonal anti-mouse/human Id3 (clones #6-1, 16-1, 17-3, and 42-1) produced in Example 6 were tested reactivity against the following antigens: mouse Id1:His, human Id1:His, mouse Id2:His, human Id2:His, mouse Id3:His, human Id3:His, mouse Id4:His, human Id4:His and GST.
(§2) 1. Microtiter wells (prepared in accordance with Example 6) were coated (0.1 μg/well) with mouse Id1:His, human Id1:His, human Id2:His, human Id3:His, and 1.0 μg/well with GST. [0155] 2. Antibody Diluent: 0.25% (w/v) BSA in 0.015M KPO₄ Buffer, 0.85% (w/v) NaCl, 0.1% (w/v) NaN₃, pH=7.40 [0156] 3. Rabbit monoclonal anti-human Id3 (clone #3-3) prepared in Example 7 was diluted to […] with the antibody diluent. […] 4. Rabbit monoclonal anti-mouse/human Id3 (clones #6-1, 16-1, 17-3, 42-1) prepared in Example 7 was diluted to 0.005, 0.010, 0.025, 0.05, 0.10, 0.25, and 0.50 μg/ml with the antibody diluent. […] 5. Conjugate Diluent: 50% (v/v) which consists of an aqueous solution containing Fetal Bovine Serum in 0.05 M Tris, 1% (v/v) Proclin-300, pH 7.6. [0159] 6. Conjugate: Goat anti-rabbit IgG (H+L)-HRP conjugate. [0160] 7. TMB reagent. […] 8. Stop solution (1 N HCI). Method
(§3) 1. Dispense 100 μL of antibody diluent, diluted rabbit monoclonal human Id3, and mouse/human Id3 hybridoma supernatants into appropriate wells. […] 2. Incubate at room temperature with mechanical shaking at 750 rpm for 90 minutes. [0165] 3. Remove the incubation mixture by flicking plate content into an appropriate waste container followed by rinsing the wells 5 times with distilled water. [0166] 4. Strike the wells sharply onto absorbent paper or paper towels to remove all residual water droplets. [0167] 5. Dispense 100 μL of 1:50,000 Goat Anti-Rabbit IgG-HRP Conjugate Reagent into each well. Gently mix for 5 seconds. [0168] 6. Incubate at room temperature with mechanical shaking at 750 rpm for 90 minutes. [0169] 7. Repeat procedures 3 and 4. [0170] 8. Dispense 100 μL of TMB Reagent into each well. Gently mix for 5 seconds. [0171] 9. Incubate at room temperature with mechanical shaking at 750 rpm for 20 minutes. […] 10.

Mouse Id2: Histidine [4] = molecular target: T3, Mouse Id2: Histidine; experiment: ELISA, Ab 0.000 µg/ml (blank)
Experimental: as §1, §2, §3

Human Id1: Histidine = molecular target: T4, Human Id1: Histidine; experiment: ELISA, Ab 0.000 µg/ml (blank)
Experimental: as §1, §2, §3

[5] = molecular target: T7, glutathione S-transferase (GST) (UniProt P08515 1-218 = GST); experiment: ELISA, Ab 0.000 µg/ml (blank)
T7 construct: also called carrier protein GST
T7 sequence (P08515 whole entry): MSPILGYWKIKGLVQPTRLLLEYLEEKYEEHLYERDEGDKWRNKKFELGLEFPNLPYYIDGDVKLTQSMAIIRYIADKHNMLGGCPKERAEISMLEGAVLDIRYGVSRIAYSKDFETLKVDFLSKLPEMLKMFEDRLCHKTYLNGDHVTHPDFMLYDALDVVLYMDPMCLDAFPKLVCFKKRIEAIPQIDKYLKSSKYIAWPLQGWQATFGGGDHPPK
Experimental: as §1, §2, §3

Mouse Id1: Histidine = molecular target: T5, Mouse Id1: Histidine; experiment: ELISA, Ab 0.000 µg/ml (blank)
Experimental: as §1, §2, §3

Human Id3: Histidine = molecular target: T6, Human Id3: Histidine; experiment: ELISA, Ab 0.000 µg/ml (blank)
Experimental: as §1, §2, §3

Mouse Id3: Histidine [6] = molecular target: T2, Mouse Id3: Histidine; experiment: ELISA, Ab 0.000 µg/ml (blank)
Experimental: as §1, §2, §3

Mouse Id2: Histidine [7] = molecular target: T3, Mouse Id2: Histidine; experiment: ELISA, Ab 0.100 µg/ml

Binder	Cross-reactivity (%) (Human Id2: Histidine [1])	Cross-reactivity (%) (Mouse Id3: Histidine [2])	A450 (Human Id2: Histidine [3]) [A450]	A450 (Mouse Id2: Histidine [4]) [A450]	A450 (Human Id1: Histidine) [A450]	A450 [5] [A450]	A450 (Mouse Id1: Histidine) [A450]	A450 (Human Id3: Histidine) [A450]	A450 (Mouse Id3: Histidine [6]) [A450]	A450 (Mouse Id2: Histidine [7]) [A450]
B1	< 1	100	0.049	0.046	0.043	0.048	0.044	0.046	0.044	0.055
B2	< 1	100	0.045	0.044	0.045	0.047	0.045	0.043	0.047	0.055
B3	< 1	100	0.043	0.048	0.045	0.046	0.045	0.045	0.047	0.057
B4	< 1	100	0.044	0.048	0.043	0.048	0.052	0.044	0.047	0.058
B5			0.043	0.048	0.046	0.044	0.047			0.05
